Experimental findings from the supplement of paper PMC7125110 are described below.

± gives the standard error. Fewer inactive variants are shown than the library holds. A value given as a limit tells only on which side of the number the result lay.

Sequences and labels used below:
B1: glmS ribozyme (parent)
chain: AUAAAAGCGCCAGAACUACAGAAAUGUAGUUGACGAGGAGGAGGUUUAUCGAAUUUUCGGCGGAUGCCUCCAAA

One data set covers variants of B1. Put plainly: self-cleavage kobs at 2500 uM GlcN6P; higher = faster cleavage; RNA array. Particulars: with glucosamine-6-phosphate. Put shortly: (§1)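 kobs was derived by fitting per-tile medians to one- or two-exponential decays after normalising signals to baseline and to non-cleaving reference variants. Those signals came from barcoded ribozyme variants transcribed in situ by E. coli RNA polymerase on sequenced MiSeq chips, followed through a hybridised Cy3 probe at 37 °C and imaged over ~14 h. Glucosamine-6-phosphate (40 μM to 10 mM) in HEPES/KCl/Mg(OAc)2 buffer was flowed in. Weighted Michaelis–Menten fits across concentrations then gave kcat and KM.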
Take U31G A72G: the “self-cleavage kobs at 2500 uM GlcN6P” value stood at 0.00235 ± 0.00096 s⁻¹.
Turning to G29A G35U A53U, the “self-cleavage kobs at 2500 uM GlcN6P” value was less than 1e-05 s⁻¹.
The same measure, in the same setting: the figure for G38A G41U G43C A53U G59A A64C is less than 1e-05 s⁻¹.
On the same count and under the same terms, the figure for C11G G29U A48U G51U C71G is 0.000485 ± 0.00016 s⁻¹.
As for G40U A42G C70U, the “self-cleavage kobs at 2500 uM GlcN6P” value is 0.00344 ± 0.00066 s⁻¹.
On to G7U G13U A42U G44C, for which the “self-cleavage kobs at 2500 uM GlcN6P” value is less than 1e-05 s⁻¹.
Turning to C16A G40C A42U, the “self-cleavage kobs at 2500 uM GlcN6P” value is less than 1e-05 s⁻¹.
In the case of A14U G43U C68G, the “self-cleavage kobs at 2500 uM GlcN6P” value was 0.0033 ± 0.00062 s⁻¹.
For the variant U54G U57A C67G, the “self-cleavage kobs at 2500 uM GlcN6P” value turned out to be 7.42e-05 ± 2.5e-05 s⁻¹.
The same measure, in the same setting: the result for A14C A15G C16U reads 4.99e-05 ± 1.9e-05 s⁻¹; that for G9A G37A G38U, less than 1e-05 s⁻¹.
Turning to C8U G32C C70U, the “self-cleavage kobs at 2500 uM GlcN6P” value was less than 1e-05 s⁻¹.
C11G G35A G40A: the “self-cleavage kobs at 2500 uM GlcN6P” value is less than 1e-05 s⁻¹.
With C10G G60C C61A, the “self-cleavage kobs at 2500 uM GlcN6P” value was less than 1e-05 s⁻¹.
A14U G32A G38U C50G C71G: the “self-cleavage kobs at 2500 uM GlcN6P” value stood at 0.000179 ± 3.5e-05 s⁻¹.
On the same count and under the same terms, the result for G32C C50U C58G reads less than 1e-05 s⁻¹.
Turning to C19A A42C, the “self-cleavage kobs at 2500 uM GlcN6P” value was less than 1e-05 s⁻¹.
Same read-out and setting: the result for A14C G29U A53G U65G reads 6.14e-05 ± 1.8e-05 s⁻¹; that for C10A A15U A42C G44C U56A C67G C70G, less than 1e-05 s⁻¹.
In the case of A39U U65C C67G, the “self-cleavage kobs at 2500 uM GlcN6P” value is 0.000168 ± 5.5e-05 s⁻¹.
With C8U U54A C58G, the “self-cleavage kobs at 2500 uM GlcN6P” value is less than 1e-05 s⁻¹.
Take G44C C58G G63A C67G: the “self-cleavage kobs at 2500 uM GlcN6P” value was less than 1e-05 s⁻¹.
Regarding A15G A64C C71U, the “self-cleavage kobs at 2500 uM GlcN6P” value came to 7.46e-05 ± 1.9e-05 s⁻¹.
In the case of C10G U56C, the “self-cleavage kobs at 2500 uM GlcN6P” value is less than 1e-05 s⁻¹.
On to C16G U31G A42G, for which the “self-cleavage kobs at 2500 uM GlcN6P” value was found to be 0.000761 ± 0.0003 s⁻¹.
With A12G U31C U54C, the “self-cleavage kobs at 2500 uM GlcN6P” value came out at 3.97e-05 ± 1.2e-05 s⁻¹.
In the case of A6U G35U U45A U57A, the “self-cleavage kobs at 2500 uM GlcN6P” value was less than 1e-05 s⁻¹.
Consider C8G U69G, for which the “self-cleavage kobs at 2500 uM GlcN6P” value is less than 1e-05 s⁻¹.
In the case of G13A U31G A36G, the “self-cleavage kobs at 2500 uM GlcN6P” value is less than 1e-05 s⁻¹.
Regarding G29U G37C U46G, the “self-cleavage kobs at 2500 uM GlcN6P” value was less than 1e-05 s⁻¹.
On to A33U C34A G44U A52C, for which the “self-cleavage kobs at 2500 uM GlcN6P” value was less than 1e-05 s⁻¹.
The same measure, in the same setting: the result for A12C C16U A39U reads 0.00306 ± 0.00084 s⁻¹; that for A12G A14U U49C C50G C61U, less than 1e-05 s⁻¹; that for U45A U46A A52U, 8.04e-05 ± 3.5e-05 s⁻¹.
With A14C A33C U49A G66C, the “self-cleavage kobs at 2500 uM GlcN6P” value was less than 1e-05 s⁻¹.
As to C34U G59A C71U, the “self-cleavage kobs at 2500 uM GlcN6P” value is less than 1e-05 s⁻¹.
Same read-out and setting: the result for A6C G29U G40A U49G C68U reads less than 1e-05 s⁻¹; that for A6U A14C U45A A48G G66U, less than 1e-05 s⁻¹; that for G7U C11U A12U G38C G43U U54A, less than 1e-05 s⁻¹.
As to G7A C50G G63C, the “self-cleavage kobs at 2500 uM GlcN6P” value is 0.000242 ± 7.3e-05 s⁻¹.
Turning to G51U A53G U69G, the “self-cleavage kobs at 2500 uM GlcN6P” value came to 4.29e-05 ± 2e-05 s⁻¹.
As for U45G U56G A64G, the “self-cleavage kobs at 2500 uM GlcN6P” value is 0.00171 ± 0.00054 s⁻¹.
Still for that read-out and setting: the result for G41C G43C U55A U57G U69G reads less than 1e-05 s⁻¹.
For C11A C34A A42C C70A, the “self-cleavage kobs at 2500 uM GlcN6P” value is less than 1e-05 s⁻¹.
Take G7A C67A U69A: the “self-cleavage kobs at 2500 uM GlcN6P” value was less than 1e-05 s⁻¹.
On the same count and under the same terms, the result for C11U A12G U56C reads 0.000115 ± 2.6e-05 s⁻¹; that for G35U A64G C71A, less than 1e-05 s⁻¹; that for G7U U31C A36U A39C A42G G59U G66U, less than 1e-05 s⁻¹.
Consider U45C U46A, for which the “self-cleavage kobs at 2500 uM GlcN6P” value amounted to 4.42e-05 ± 1.9e-05 s⁻¹.
The same measure, in the same setting: the figure for G9U G13U G29C G32C A33G is less than 1e-05 s⁻¹; for G29U U45A U54C U55C G62C it is less than 1e-05 s⁻¹; for G32A G43U G66A C68G it is 0.00088 ± 0.0003 s⁻¹.
Turning to G9U G32U G38U A42U, the “self-cleavage kobs at 2500 uM GlcN6P” value was less than 1e-05 s⁻¹.
Same read-out and setting: the figure for A15U G29A G62A is less than 1e-05 s⁻¹; for A15U G37U G43C U56A C68G C71G it is less than 1e-05 s⁻¹.
Take G35C G37A U49A A52G A53U U56G C61G: the “self-cleavage kobs at 2500 uM GlcN6P” value was less than 1e-05 s⁻¹.
With G43A G59C C68G, the “self-cleavage kobs at 2500 uM GlcN6P” value is less than 1e-05 s⁻¹.
On to U31A G32A A64G, for which the “self-cleavage kobs at 2500 uM GlcN6P” value is 0.000169 ± 4.6e-05 s⁻¹.
Consider G32C A48U C68U, for which the “self-cleavage kobs at 2500 uM GlcN6P” value is less than 1e-05 s⁻¹.
For G40A A72C, the “self-cleavage kobs at 2500 uM GlcN6P” value is 0.00214 ± 0.00067 s⁻¹.
In the case of C10G A15G C34A G37A, the “self-cleavage kobs at 2500 uM GlcN6P” value is less than 1e-05 s⁻¹.
In the case of G13U U47G C67A, the “self-cleavage kobs at 2500 uM GlcN6P” value was determined as 7.8e-05 ± 1.6e-05 s⁻¹.
Still for that read-out and setting: the figure for G13U U47G C67U is 8.34e-05 ± 2.2e-05 s⁻¹; for G9A U56G G60A it is less than 1e-05 s⁻¹.
As to A6G C11G U69G, the “self-cleavage kobs at 2500 uM GlcN6P” value came to 7.2e-05 ± 2.9e-05 s⁻¹.
With A36G C58U G59U A64G, the “self-cleavage kobs at 2500 uM GlcN6P” value was less than 1e-05 s⁻¹.
A14C C16A A42G: the “self-cleavage kobs at 2500 uM GlcN6P” value is 5.08e-05 ± 2e-05 s⁻¹.
As to G29C C34U G37U C70U, the “self-cleavage kobs at 2500 uM GlcN6P” value came out at 0.000116 ± 3.3e-05 s⁻¹.
On to C8U G29C G60U, for which the “self-cleavage kobs at 2500 uM GlcN6P” value was less than 1e-05 s⁻¹.
On to C10U A14G G44U, for which the “self-cleavage kobs at 2500 uM GlcN6P” value was less than 1e-05 s⁻¹.
Consider G41U A42U A52G U56A, for which the “self-cleavage kobs at 2500 uM GlcN6P” value was found to be 3.73e-05 ± 1.2e-05 s⁻¹.
For the variant G7C U45A G51U G59U, the “self-cleavage kobs at 2500 uM GlcN6P” value was less than 1e-05 s⁻¹.
C16G G29U A39U G51U C71U: the “self-cleavage kobs at 2500 uM GlcN6P” value is less than 1e-05 s⁻¹.
Turning to G7A C8G C10G G35C, the “self-cleavage kobs at 2500 uM GlcN6P” value is less than 1e-05 s⁻¹.
On to A6G G51U C58U, for which the “self-cleavage kobs at 2500 uM GlcN6P” value is less than 1e-05 s⁻¹.
Still for that read-out and setting: the figure for A14U G43C U45G is 0.000172 ± 4.1e-05 s⁻¹; for G9C A15U U47G G51C G63C it is less than 1e-05 s⁻¹.
For C10A G29C A42G U55C U56C C70U, the “self-cleavage kobs at 2500 uM GlcN6P” value is less than 1e-05 s⁻¹.

In a further data set the parent is B1. In words: self-cleavage kobs at 10000 uM GlcN6P; higher = faster cleavage; RNA array. Particulars: with glucosamine-6-phosphate. Put shortly:
as §1
U31G A72G: the “self-cleavage kobs at 10000 uM GlcN6P” value came out at 0.00988 ± 0.0032 s⁻¹.
On to U54G U57A C67G, for which the “self-cleavage kobs at 10000 uM GlcN6P” value was found to be 7.25e-05 ± 1.8e-05 s⁻¹.
With A39U U65C C67G, the “self-cleavage kobs at 10000 uM GlcN6P” value was 0.00025 ± 6e-05 s⁻¹.
Consider C10G U56C, for which the “self-cleavage kobs at 10000 uM GlcN6P” value is less than 1e-05 s⁻¹.
Consider U45C U46A, for which the “self-cleavage kobs at 10000 uM GlcN6P” value was determined as 5.25e-05 ± 1.3e-05 s⁻¹.
On to A15U G29A G62A, for which the “self-cleavage kobs at 10000 uM GlcN6P” value was less than 1e-05 s⁻¹.
Still for that read-out and setting: the figure for G35C G37A U49A A52G A53U U56G C61G is less than 1e-05 s⁻¹; for G13U U47G C67U it is 4.31e-05 ± 2e-05 s⁻¹.
Consider G29C C34U G37U C70U, for which the “self-cleavage kobs at 10000 uM GlcN6P” value was determined as 3.91e-05 ± 1.8e-05 s⁻¹.
As for A14U G43C U45G, the “self-cleavage kobs at 10000 uM GlcN6P” value was 0.000252 ± 6.9e-05 s⁻¹.
For C10A G29C A42G U55C U56C C70U, the “self-cleavage kobs at 10000 uM GlcN6P” value was less than 1e-05 s⁻¹.
